Kd data for 1 molecule are collected here from EP3338799A1 (AlderBio Holdings LLC, dated 2018).

Test in all cases: surface plasmon resonance, 25 °C
A general note: SPR reads the build-up and loss of mass on a sensor chip optically.

Assay [1] concerns the target T1, mouse IL-6 (mouse, UniProt P08505 25-211).
T1 construct: also called IL-6 from mouse
T1 sequence (looked up): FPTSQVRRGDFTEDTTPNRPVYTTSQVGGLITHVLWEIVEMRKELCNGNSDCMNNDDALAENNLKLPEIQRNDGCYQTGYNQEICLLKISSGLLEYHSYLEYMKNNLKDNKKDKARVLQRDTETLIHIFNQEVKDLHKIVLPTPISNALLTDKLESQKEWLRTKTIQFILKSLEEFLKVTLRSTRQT

In assay [2] the target is T2, rat IL-6 (rat, UniProt P20607 25-211).
T2 construct: also called IL-6 from rat
T2 sequence (looked up): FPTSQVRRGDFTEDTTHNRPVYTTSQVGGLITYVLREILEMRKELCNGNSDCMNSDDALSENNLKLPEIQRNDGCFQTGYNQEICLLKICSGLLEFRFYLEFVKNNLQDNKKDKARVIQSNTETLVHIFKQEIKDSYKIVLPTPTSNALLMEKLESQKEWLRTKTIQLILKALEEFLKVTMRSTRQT

Assay [3] has as its target T3, cynomolgus monkey IL-6 (cynomolgus monkey, UniProt P79341 28-212, limits assumed).
T3 construct: also called IL-6 of cynomolgus monkey
T3 sequence (looked up): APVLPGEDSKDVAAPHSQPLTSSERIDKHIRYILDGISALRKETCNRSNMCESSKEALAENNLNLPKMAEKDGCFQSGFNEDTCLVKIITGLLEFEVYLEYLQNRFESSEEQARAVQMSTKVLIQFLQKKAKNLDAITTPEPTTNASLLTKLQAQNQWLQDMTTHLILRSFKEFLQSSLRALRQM

The target in assay [4] is T4, human IL-6 (human, UniProt P05231 30-212).
T4 construct: also called huIL-6; hIL-6

B1: antibody Ab1 (antibody, human IgG1, kappa, N297A, V domains shown)
VH: EVQLVESGGGLVQPGGSLRLSCAASGFSLSNYYVTWVRQAPGKGLEWVGIIYGSDETAYATSAIGRFTISRDNSKNTLYLQMNSLRAEDTAVYYCARDDSSDWDAKFNLWGQGTLVTVSS
VL: AIQMTQSPSSLSASVGDRVTITCQASQSINNELSWYQQKPGKAPKLLIYRASTLASGVPSRFSGSGSGTDFTLTISSLQPDDFATYYCQQGYSLRNIDNAFGGGTKVEIKR
notes: It is a humanized (from rabbit), full length, aglycosylated antibody with human kappa and IgG gamma-1 constant regions, produced in Pichia pastoris; also called Ab1 monoclonal antibody; anti-IL-6 antibody Ab1
Regarding B1, the Kd (commonly a measure of binding affinity in units of concentration) in assay [1] was found to be 400 pM; in assay [2] it was 1400 pM; in assay [3] it was 31 pM; in assay [4], 4 pM.
